Test results reported in patent US9994628B2, “Peptides and combination of peptides for use in immunotherapy against various tumors” (IMMATICS BIOTECHNOLOGIES GMBH, priority 2015, dated 2018).

biological target: HLA-A*02:01 (Homo sapiens, UniProt P04439, D140Y/D185E/D98H/E176V/E277Q/G131W/G231S/I119V/I121R/I166T/I218V/L300P/L318F/N151K/N90K/P208A/P217A/Q86G/Q94H/R138H/R169H/T345S); assay: MHC binding assay: UV-ligand exchange and β2m ELISA (peptide exchange yield, Table 7); conditions: binding of HLA-class I restricted peptides to HLA-A*02:01, UV-ligand exchange
Procedure, shortened: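 Peptide-MHC complexes made by UV-mediated exchange of a cleavable ligand for test peptide; exchange yield measured by ELISA detecting β2m of stabilized complexes captured on streptavidin, using refolded HLA-A*02:01/MLA-001 monomer standards (15-500 ng/ml). Samples diluted 100-fold; HRP anti-β2m, TMB, absorbance 450 nm.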

| Peptide exchange (MHC class I binding score, peptide exchange yield) | Substance |
| --- | --- |
| +++ (≥50% = +++) | 200 (IMPTFDLTKV; listed as Homo sapiens) [compound 200] |
| ++ (≥20% = ++) | 203 (FLFVDPELV; listed as Homo sapiens) [compound 203] |
| +++ (≥50% = +++) | 204 (SEWGSPHAAVP; listed as Homo sapiens) [compound 204] |
| ++++ (≥75% = ++++) | 206 (GLDAFRIFL; listed as Homo sapiens) [compound 206] |
| +++ (≥50% = +++) | 207 (KLFETVEEL; listed as Homo sapiens) [compound 207] |
| ++ (≥20% = ++) | 208 (HLNNDRNPL; listed as Homo sapiens) [compound 208] |
| +++ (≥50% = +++) | 210 (GLAGDNIYL; listed as Homo sapiens) [compound 210] |
| +++ (≥50% = +++) | 211 (LLTTVLINA; listed as Homo sapiens) [compound 211] |
| ++ (≥20% = ++) | 212 (MTLSEIHAV; listed as Homo sapiens) [compound 212] |
| +++ (≥50% = +++) | 213 (ILAVDGVLSV; listed as Homo sapiens) [compound 213] |
| +++ (≥50% = +++) | 214 (ALFETLIQL; listed as Homo sapiens) [compound 214] |
| ++ (≥20% = ++) | 215 (QIADIVTSV; listed as Homo sapiens) [compound 215] |
| ++ (≥20% = ++) | 216 (ALSTVTPRI; listed as Homo sapiens) [compound 216] |
| +++ (≥50% = +++) | 217 (LLWPSSVPA; listed as Homo sapiens) [compound 217] |
| +++ (≥50% = +++) | 218 (SLTGANITV; listed as Homo sapiens) [compound 218] |
| ++ (≥20% = ++) | 219 (GVVPTIQKV; listed as Homo sapiens) [compound 219] |
| +++ (≥50% = +++) | 220 (ALSELERVL; listed as Homo sapiens) [compound 220] |
| ++ (≥20% = ++) | 221 (IMLNSVEEI; listed as Homo sapiens) [compound 221] |
| ++ (≥20% = ++) | 222 (LLTGVFAQL; listed as Homo sapiens) [compound 222] |
| +++ (≥50% = +++) | 223 (ALHPVQFYL; listed as Homo sapiens) [compound 223] |
| +++ (≥50% = +++) | 224 (LLFDWSGTGRADA; listed as Homo sapiens) [compound 224] |
| +++ (≥50% = +++) | 225 (FLPQPVPLSV; listed as Homo sapiens) [compound 225] |
| +++ (≥50% = +++) | 226 (SLAGNLQEL; listed as Homo sapiens) [compound 226] |
| + (≥10% = +) | 227 (SEMEELPSV; listed as Homo sapiens) [compound 227] |
| +++ (≥50% = +++) | 228 (SLLELDGINLRL; listed as Homo sapiens) [compound 228] |
| ++ (≥20% = ++) | 229 (YLYELEHAL; listed as Homo sapiens) [compound 229] |
| +++ (≥50% = +++) | 230 (KLLNMIFSI; listed as Homo sapiens) [compound 230] |
| +++ (≥50% = +++) | 231 (LLDDIFIRL; listed as Homo sapiens) [compound 231] |
